Substitutions are numbered along the chain they refer to. In names and notes the source's numbering stands.

Experimental findings from PMC10786891, “Massively parallel profiling of RNA-targeting CRISPR-Cas13d” are described below.

First the molecules themselves.
B1: target 1 U3G,C7U (mixed)
RNA 1: CACCCGUGCAAAAAUGCAGGGGUCUAAAACUGAGCGGAUAACCUCUCUAUGG
RNA 2: GGGAAUGGAUCCACAUCUACGAAUUCGUACCAUAGAGAGGUUAUUCGCGCACCGAGAUCGGAAGAGCACACGU
B2: target 1 insG 3' of 2 (mixed)
RNA 1: B1 RNA 1
RNA 2: GGGAAUGGAUCCACAUCUACGAAUUCGUACCAUAGAGAGGUUAUCCGCUCGACCGAGAUCGGAAGAGCACACGU
B3: target 1 insA 3' of 10,insA 3' of 3 (mixed)
RNA 1: B1 RNA 1
RNA 2: GGGAAUGGAUCCACAUCUACGAAUUCGUACCAUAGAGAGGUUAAUCCGCUACACCGAGAUCGGAAGAGCACACGU
B4: target 1 insA 3' of 21 (mixed)
RNA 1: B1 RNA 1
RNA 2: GGGAAUGGAUCCACAUCUACGAAUUCGUACCAAUAGAGAGGUUAUCCGCUCACCGAGAUCGGAAGAGCACACGU
B5: target 2 MT 5'PFS AGA 3'PFS ACC (mixed)
RNA 1: CACCCGUGCAAAAUUGCAGGGGUCUAAAACCUUCUCCAAAUUGUUUCAUCCU
RNA 2: GGGAAUGGAUCCACAUCUACGAAUUCAGAAGGAUGAAACAAUUUGGAGAAGACCAGAUCGGAAGAGCACACGU
B6: target 2 MT 5'PFS CCC 3'PFS UUA (mixed)
RNA 1: B5 RNA 1
RNA 2: B5 RNA 2 with A27C, G28C, A29C, A52U, C53U, C54A
B7: target 2 MT 5'PFS CUU 3'PFS AAC (mixed)
RNA 1: B5 RNA 1
RNA 2: B5 RNA 2 with A27C, G28U, A29U, C53A
B8: target 2 MT 5'PFS ACA 3'PFS AAA (mixed)
RNA 1: B5 RNA 1
RNA 2: B5 RNA 2 with G28C, C53A, C54A
B9: target 2 MT 5'PFS AAU 3'PFS CGC (mixed)
RNA 1: B5 RNA 1
RNA 2: B5 RNA 2 with G28A, A29U, A52C, C53G
B10: target 2 MT 5'PFS UUG 3'PFS CAC (mixed)
RNA 1: B5 RNA 1
RNA 2: B5 RNA 2 with A27U, G28U, A29G, A52C, C53A
B11: target 2 MT 5'PFS CAC 3'PFS CUC (mixed)
RNA 1: B5 RNA 1
RNA 2: B5 RNA 2 with A27C, G28A, A29C, A52C, C53U
B12: target 2 MT 5'PFS GAU 3'PFS UUA (mixed)
RNA 1: B5 RNA 1
RNA 2: B5 RNA 2 with A27G, G28A, A29U, A52U, C53U, C54A
B13: target 2 MT 5'PFS UUA 3'PFS CCG (mixed)
RNA 1: B5 RNA 1
RNA 2: B5 RNA 2 with A27U, G28U, A52C, C54G
B14: target 2 MT 5'PFS AGA 3'PFS ACA (mixed)
RNA 1: B5 RNA 1
RNA 2: B5 RNA 2 with C54A
B15: target 2 MT 5'PFS CUU 3'PFS AAA (mixed)
RNA 1: B5 RNA 1
RNA 2: B5 RNA 2 with A27C, G28U, A29U, C53A, C54A
B16: target 2 MT 5'PFS AUA 3'PFS CUU (mixed)
RNA 1: B5 RNA 1
RNA 2: B5 RNA 2 with G28U, A52C, C53U, C54U
B17: target 2 MT 5'PFS CUG 3'PFS AUA (mixed)
RNA 1: B5 RNA 1
RNA 2: B5 RNA 2 with A27C, G28U, A29G, C53U, C54A
B18: target 2 MT 5'PFS UUG 3'PFS CAA (mixed)
RNA 1: B5 RNA 1
RNA 2: B5 RNA 2 with A27U, G28U, A29G, A52C, C53A, C54A
B19: target 2 MT 5'PFS UUC 3'PFS AAC (mixed)
RNA 1: B5 RNA 1
RNA 2: B5 RNA 2 with A27U, G28U, A29C, C53A
B20: target 2 MT 5'PFS CUG 3'PFS AUG (mixed)
RNA 1: B5 RNA 1
RNA 2: B5 RNA 2 with A27C, G28U, A29G, C53U, C54G
B21: target 2 MT 5'PFS AGC 3'PFS CAA (mixed)
RNA 1: B5 RNA 1
RNA 2: B5 RNA 2 with A29C, A52C, C53A, C54A
B22: target 2 MT 5'PFS AGC 3'PFS CAC (mixed)
RNA 1: B5 RNA 1
RNA 2: B5 RNA 2 with A29C, A52C, C53A
B23: target 2 MT 5'PFS AGU 3'PFS AGG (mixed)
RNA 1: B5 RNA 1
RNA 2: B5 RNA 2 with A29U, C53G, C54G
B24: target 2 MT 5'PFS CUU 3'PFS AAU (mixed)
RNA 1: B5 RNA 1
RNA 2: B5 RNA 2 with A27C, G28U, A29U, C53A, C54U
B25: target 2 MT 5'PFS GAG 3'PFS AUG (mixed)
RNA 1: B5 RNA 1
RNA 2: B5 RNA 2 with A27G, G28A, A29G, C53U, C54G
B26: target 2 MT 5'PFS UUA 3'PFS CCA (mixed)
RNA 1: B5 RNA 1
RNA 2: B5 RNA 2 with A27U, G28U, A52C, C54A
B27: target 2 MT 5'PFS AAU 3'PFS CGG (mixed)
RNA 1: B5 RNA 1
RNA 2: B5 RNA 2 with G28A, A29U, A52C, C53G, C54G
B28: target 2 MT 5'PFS GGA 3'PFS UCG (mixed)
RNA 1: B5 RNA 1
RNA 2: B5 RNA 2 with A27G, A52U, C54G
B29: target 2 MT 5'PFS CUU 3'PFS AAG (mixed)
RNA 1: B5 RNA 1
RNA 2: B5 RNA 2 with A27C, G28U, A29U, C53A, C54G
B30: target 2 MT 5'PFS ACA 3'PFS AAG (mixed)
RNA 1: B5 RNA 1
RNA 2: B5 RNA 2 with G28C, C53A, C54G
B31: target 2 MT 5'PFS UUG 3'PFS CAU (mixed)
RNA 1: B5 RNA 1
RNA 2: B5 RNA 2 with A27U, G28U, A29G, A52C, C53A, C54U
B32: target 2 MT 5'PFS UUG 3'PFS CAG (mixed)
RNA 1: B5 RNA 1
RNA 2: B5 RNA 2 with A27U, G28U, A29G, A52C, C53A, C54G
B33: target 2 MT 5'PFS GGA 3'PFS UCA (mixed)
RNA 1: B5 RNA 1
RNA 2: B5 RNA 2 with A27G, A52U, C54A
B34: target 2 MT 5'PFS AGU 3'PFS AGU (mixed)
RNA 1: B5 RNA 1
RNA 2: B5 RNA 2 with A29U, C53G, C54U
B35: target 2 MT 5'PFS AGC 3'PFS CAG (mixed)
RNA 1: B5 RNA 1
RNA 2: B5 RNA 2 with A29C, A52C, C53A, C54G

This data set has as its target T1, EsCas13d, nuclease-dead (Eubacterium siraeum, UniProt B0MS50, R295A;H300A;R849A;H854A).
T1 sequence: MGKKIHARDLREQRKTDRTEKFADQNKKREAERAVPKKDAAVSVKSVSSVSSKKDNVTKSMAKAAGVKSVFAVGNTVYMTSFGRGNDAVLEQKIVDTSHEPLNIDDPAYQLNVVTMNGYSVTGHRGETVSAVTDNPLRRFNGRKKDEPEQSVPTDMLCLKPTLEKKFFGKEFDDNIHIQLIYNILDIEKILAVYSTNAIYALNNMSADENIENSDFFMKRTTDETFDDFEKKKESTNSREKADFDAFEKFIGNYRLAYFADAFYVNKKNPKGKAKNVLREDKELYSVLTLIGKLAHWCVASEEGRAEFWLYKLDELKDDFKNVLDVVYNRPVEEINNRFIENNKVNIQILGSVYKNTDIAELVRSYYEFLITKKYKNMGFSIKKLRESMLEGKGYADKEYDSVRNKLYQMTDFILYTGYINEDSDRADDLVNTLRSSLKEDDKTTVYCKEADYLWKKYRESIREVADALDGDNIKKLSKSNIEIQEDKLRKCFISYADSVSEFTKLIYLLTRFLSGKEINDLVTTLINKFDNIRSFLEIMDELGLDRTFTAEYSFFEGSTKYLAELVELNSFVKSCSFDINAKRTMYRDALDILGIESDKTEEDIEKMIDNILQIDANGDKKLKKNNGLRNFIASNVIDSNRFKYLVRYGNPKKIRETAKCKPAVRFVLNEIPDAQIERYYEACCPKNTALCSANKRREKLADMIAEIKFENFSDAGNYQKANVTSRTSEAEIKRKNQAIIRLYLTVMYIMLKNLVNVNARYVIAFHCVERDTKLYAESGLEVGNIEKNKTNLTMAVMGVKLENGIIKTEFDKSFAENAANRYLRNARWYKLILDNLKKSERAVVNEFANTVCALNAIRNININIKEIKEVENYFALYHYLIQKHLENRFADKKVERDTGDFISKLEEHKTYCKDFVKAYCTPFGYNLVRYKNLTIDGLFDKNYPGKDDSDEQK
The data set can be described thus: crRNA (strand 1, pre-loaded); Mg2+; 40 mM Tris-HCl pH 7.5, 150 mM NaCl, 6 mM MgCl2, 1 mM DTT, 0.1% Tween-20, 0.2 mg/ml BSA; 25 C; 10 min per concentration, then washed. Conditions: tags: His6-TwinStrep-SUMO cleaved; N-terminal SNAP kept (SNAP-Surface 488); label: 3' end held by stalled T7 RNA polymerase.
What is called Kd is the concentration at which binding is half-saturated. B1 had a Kd of 5.39 ± 0.15 nM.
The value for B2 was 8.6 ± 0.4 nM; that for B3 was 8.56 ± 0.34 nM; that for B4 was 13.8 ± 1.2 nM.
The value for B5 was 21 ± 9 nM; that for B6 was 1.25 ± 0.21 nM; that for B7 was 4.3 ± 0.5 nM.
As to B8, the Kd was 8.3 ± 1.4 nM.
The value for B9 was 7.3 ± 1.3 nM; that for B10 was 16.4 ± 2.2 nM.
The value for B11 was 2.9 ± 1 nM; that for B12 was 23 ± 7 nM; that for B13 was 39 ± 4 nM.
Molecule B14 showed a Kd of 4.6 ± 1.1 nM.
Consider B15, for which the Kd amounted to 2.9 ± 0.35 nM.
As for B16, the figure is 20 ± 6 nM; as for B17, 2.63 ± 0.24 nM; as for B18, 9.9 ± 1.4 nM.
B19 yielded an equilibrium dissociation constant (Kd) of 15 ± 4 nM.
As for B20, the figure is 3.17 ± 0.32 nM; as for B21, 7 ± 1.8 nM.
The molecule B22 displayed a Kd of 11.4 ± 2.6 nM.
The value for B23 was 12.3 ± 1.9 nM; that for B24 was 4.3 ± 0.6 nM.
As for B25, the figure is 5.9 ± 0.4 nM; as for B26, 29 ± 5 nM.
B27 yielded a Kd of 4.6 ± 0.6 nM.
B28: the Kd was determined as 17.4 ± 2.7 nM.
As for B29, the figure is 4.1 ± 0.4 nM.
The molecule B30 displayed a Kd of 10 ± 5 nM.
As for B31, the figure is 9.1 ± 1.2 nM.
In turn, B32 came in with a Kd of 11.8 ± 0.9 nM.
As for B33, the figure is 10.4 ± 1.4 nM.
The molecule B34 had a Kd of 6.8 ± 0.7 nM.
As for B35, the Kd came to 6.7 ± 1.1 nM.
